Measured values published in the DeepSol protein solubility set.

Test: soluble on expression in E. coli; label from the status in PepcDB or PDB records
In the case of “MSYDANLTKYMDFLVKKTKNAAEPTTFKEIFDEYSRLDPDRSTYSMCYDKFHHRLAPIMNELNTYSIRERVRVMLTMGGKVSKDFLTTIEKLGTVQLDEKRRILKYASKDGKFKIEGARSEFMDFLIQQTRDAVRPMTSTSIAKEFCRIKDRQVSVDTFNKKFRRNLAPNMSRWSSYLLGDRIRMMFVLKGTVRTDFLAEIEKSGTVQLDDQRRIVRYASNDGMIELEEKTSGVKRRRSTKSSNTPTKRREITENELSDTDDVEVMEIVDGYVEQESASFDFEELVNREASYNLDQGHLYREILEAPLLENRDSKFNPFNAKSGRQAEVQRSGTFLNESEGTSTNAQESFVFRGFLKQEPVFEQFHIQNMSNNLVNLPIPPEIEETPVQEGHHVEPSGITGSDGIRLHKFLNSLELMLTSLESDTLNDLMQEIEEIRRRTDEILPSELVITTLQTFFLGITRKFRPETSAPSKSAKECLRIFKYALLWLKNPLLYDLQKRVQDEIENHEADGKVLLIADVQQGIRNILFTVV”, the “soluble on expression in E. coli” value is reported as “not soluble”.
For “MSYNEKSSKSIHEKRAIAKYAASLIEDGDCIFVDAGTTTYELIDYLEGKDILVVSNGLSHIDTLIQKNIKCYVIGGNIKISTKAITGCDALMCLSKFRFDKCFIGANGVHHTYGLTTPDTEEAILKECAINNSRKAYVLADDSKFGEISTIKFSDINKCVIITNEKPKDLEHHHHHH”, the “soluble on expression in E. coli” value was “not soluble”.
With “MSYNLLGFLQRSSNFQSQKLLWQLNGRLEYCLKDRMNFDIPEEIKQLQQFQKEDAALTIYEMLQNIFAIFRQDSSSTGWNETIVENLLANVYHQINHLKTVLEEKLEKEDFTRGKLMSSLHLKRYYGRILHYLKAKEYSHCAWTIVRVEILRNFYFINRLTGYLRN” the “soluble on expression in E. coli” value was “not soluble”.
With “MSYTAHEAQAALAPQFDAYSKAIEGSDWDTVATFYHPNGVIVQKGKEAFYGKDAIKAELLKFSEATGRSTSSFSNQKYEGAGDYLIITADFSSETEKAGTVKGKFVQIWKKEGDRHLIYHDEFEVNP” the “soluble on expression in E. coli” value was “not soluble”.
With “MSYYHHHHHHDYDIPTTENLTFQGAMEPTSSLNRGDRKKGSSLVTGSEVQSQSNGASCFITTDSEKSLVSRQASQVEQIELRTYVFLDSLQPQLAAYMGTVSRGFLPIPGDSCLWMEVSPGMAVHRVTDIALKASNVRLGQMIVERAFGSLALYHKDQSTVLHSGDVVLDAIGSEVRKRTKPSTSWTEVICAITPDHAVLINRQNRSGSMIQSGMSMFILETEPAGYVLKAANEAEKSANITIIDVKAVGAFGRLTLAGKEGDVEEAAAAAIRAIDQISNY” the “soluble on expression in E. coli” value was “soluble”.
With “MSYYHHHHHHLESTSLYKKAGLENLYFQGVRQYKIHTNLDGTDDKVWDVTNGKVRFYQPSNLGLQSTNNIWQSNGIGVMGTRSITQPQIEFKLETFGESLEENYQLMKDFVNDILSKKFVTLEYQTEIFQVYADLALADVTKTEGYGKNGTFSEKITFDIITKWYTYENLTFDKIQNGKVIAGMSKIYGGTAPGNYKYIKGTSYTYYGESDIDRLSRWDIKEEIFSFMGILYPKLPKTPAGVRFLDDIGNEYTAIVFKTEQVQDYILINTDVNDETYQGWKGTTALNLFPVMDFERYRTRIIEKGQMELINLSKAEFKIKRKADFV” the “soluble on expression in E. coli” value was “soluble”.
With “MSYYHHHHHHLESTSLYKKAGLVQRITIAPQGPEFSRFVMGYWRLMDWNMSARQLVSFIEEHLDLGVTTVDHADIYGGYQCEAAFGEALKLAPHLRERMEIVSKCGIATTAREENVIGHYITDRDHIIKSAEQSLINLATDHLDLLLIHRPDPLMDADEVADAFKHLHQSGKVRHFGVSNFTPAQFALLQSRLPFTLATNQVEISPVHQPLLLDGTLDQLQQLRVRPMAWSCLGGGRLFNDDYFQPLRDELAVVAEELNAGSIEQVVNAWVLRLPSQPLPIIGSGKIERVRAAVEAETLKMTRQQWFRIRKAALGYDVP” the “soluble on expression in E. coli” value was “soluble”.
For “MTADANKSESLLCMDKAREAIKSGDTDKARRMLLKAKKLDPGQNIEFLTKKIDDMTNNTSSSSQTSSSRASEERSYAHDDHYDDPNLRNRKARSPVKKNGKTEPEPKQRSASRTPKLGVDYTSEQKELVERIRHCKDYYEILKIDKKASDDDIRKEYRKLALKLHPDKCRAPHATEAFKALGNAYAVLSDTDK”, the “soluble on expression in E. coli” value was “not soluble”.
For “MTAHPPRPELQIDIVSDVVCPWCIVGFRQLDQALAATGVLARLRWHPFELNPQMGPEGQNLREHIMEKYGSTPEQSAEARARLTAIGAELGFTFNFTDDSRIVNTFAAHQLLDWAEGQGRQHPLKQALFAAYFTDGRDVSDLSVLLDAVEAAGLDREAAQTALTSGAHQAPVREKQKFWAQHGISGVPSMVFGGKYLLTGAQGADTYAQVIQRCLAEAA”, the “soluble on expression in E. coli” value was “not soluble”.
With “MTAILLHNVAKSYRSYDHPWETLWEVFTKTRRHREWTALHPLSLEIAHGEVVGIVGTNGAGKSTLLKLIAGTLTPSAGDIRVNGHVAALLELGAGFHPDMTGRENVYLGASVMGLSSERVDRLYDGIVEFAGLGEFMDQPVKTYSSGMYMRLAFAVATAADPDVLILDEALSVGDGAFARKSFERIIGYKDAGKTILFCSHSLYQVEAICSRVLWLDHGRLVMDGEPARVVSAYAEFLGGGGEGCGTPDQPAPAAVAGSGVGRLTKVEVEADGVEGRKLTVRSGQTDLTVAVGFASDPALPPPSVGLTITGSNGWAVTSASTSNDGLTISRRPDGSGEVELSFPRFPLLKGAYWVNVFLLCEQGIHLYDRIEHAAELEVVQDGLEQGVVSLPRRWSVNGAPASAVSPTVPTVAAWLEHHHHHH” the “soluble on expression in E. coli” value was “not soluble”.
With “MTAKPTVFVVDDDMSVREGLRNLLRSAGFEVETFDCASTFLEHRRPEQHGCLVLDMRMPGMSGIELQEQLTAISDGIPIVFITAHGDIPMTVRAMKAGAIEFLPKPFEEQALLDAIEQGLQLNAERRQARETQDQLEQLFSSLTGREQQVLQLTIRGLMNKQIAGELGIAEVTVKVHRHNIMQKLNVRSLANLVHLVEKYESFERGVS” the “soluble on expression in E. coli” value was “soluble”.
In the case of “MTAQKMSAQEIIAFIGNAEKKTNVKVTFEGELATAVPSSVTKLGNVLFGDWKDIEPLLANLTENKDYVVEQDGRNSAVPLLDK”, the “soluble on expression in E. coli” value is reported as “not soluble”.
In the case of “MTARDFLEFRERLAPASGFQSAQLREIEILLGLEDTQRISIGNGCSYRDALKLPGGAPSSSAQRVEARAADGPSFKHCLYDWLSRVPIDGSNAPADITRFLEAYLASLRAENDRRLKLASSGLAAAEIEQLRARYAAEDAGAQAFLLAEDDPQASDAERETRRAGRAAMLFIESYRELPQLAWPHALLESVLELEQAMLIWRQRHARMVERFIGRRIGTGGSSGVDYLDQTARYRIFTELWTVRSLLLRKAAVPQIRSSAGYGFVMEGFALEHHHHHH”, the “soluble on expression in E. coli” value is reported as “not soluble”.
In the case of “MTARIYKPAKNAMQSGTAKTREWQLDYEPETPRTIEPLMGWTSSSDMQQQVSLRFHTRDEAVAYCEREGIPYQLIEPKEPVRRRAAYADNFAFRRPEPWTHLEHHHHHH”, the “soluble on expression in E. coli” value is reported as “not soluble”.
In the case of “MTARPDTAIVLAAGLGKRMRPITDTIPKPLVRIAGKTLLDWGLDSLAAAGVAKAVVNVHYLPEQIVAHVAARSAPRIVISDESDRLLDSAGGIVKALPELGEQPFYILNADTFWIDHGPLNLGRLALAWDAAKMDILLMLADLHQATGHCGSTDFLVAPDGALRRSKGDPAGLIYAGAAIIHPRLFKDASAEPHSLNAYFDKAIAAGRLFGMPMHGHWITVGTPDAIPLAEEAVAGALAEMQLEHHHHHH”, the “soluble on expression in E. coli” value is reported as “not soluble”.
With “MTDEAFAQADPEWLALIRAAREWLSGPLGQLLLEEERRVLDEELGRYFGGYLVHYGPSAQNPPVAPQVQRNVRLGAPLPGVEIVCEEQAWPLSEHAADVVVLQHGLDFCLSPHGLLREAASSVRPGGHLLIIGINPWSAWGVRHVFARDALRKARCISSSRVADWLNLLGFALEKRRFGCYRPPLASAAWQSRLAGLESLGEGRQSPGGGFYLLVARKLVVGLRPLRQVRRDPIGKLIPMPMAKVSRNTQDCS” the “soluble on expression in E. coli” value was “not soluble”.
With “MTDHSNTRVVVGMSGGVDSSVVALLLKQQGYDVVGVFMKNWDDTDENGVCTATEDYKDVAKVADKIGIPYYSINFEKEYWDRVFTYFLDEYKKGRTPNPDVICNKEIKFKAFLDYAMDLGADYIATGHYARLQHDEDGTMHLLRGVDSNKDQTYFLSQLDSKTLQKVMFPLGEMVKPDVRKLALNAGLATAKKKDSVGICFIGEKNFKEFLGHYLPATPGKMMTFDGQVKGEHAGLMYYTIGQRRGLGIGGDGEDNEPWFVVGKDLKKNILYVGKGYHNPHLYATHLKASDLHFVTDEDLGNDFHVTAKFRYRQKDSGVTVHFNDDHTEVTVTFDDPVRAITPGQAVVFYNGEECLGSGMIDAAYNDERVLQYVLEHHHHHH” the “soluble on expression in E. coli” value was “not soluble”.
With “MTDMTYTIALMGNPNTGKSTLFNVLTGLRQHTGNWPGKTVTHAEGECRHRGTLYRIVDLPGTYSLYSNSADEEVARDFLLFQRPDVTIVVVDATALERNLNLALQVLEMTDRVIIAINLMDEAKKKGIHINTKKLAAKLGVPVVPISARNREGIDALLDTVDAMAHGRINTNPLSIRYSPEIERGIAKLLPLVKDVMGDTYPARWIALRLLDGDTSLLQALKQPPQPLIKEGNAYACCGSVKSV” the “soluble on expression in E. coli” value was “not soluble”.
For “MTDNSQFHAASALVQAAHTVSVVGHLRPDADAIGSVAATVAALQQLGKDAVGAIGQLDSMPENLYTIPGASNIKFGDSLPESDLIIVVDCGSIERTGAFESIIVNNPDKVLVVDHHATNPGFGAVNLIDVEAESTTTILYDWFDAMSVQITPDIAHGLYAGLLTDTGCFRWGRPVMHDMAKELMEFGLDIRAISSALLDQTSVDDLRLVGQIVSRIELREAGPYTLAVLVADFDTINGRSRAVVEGLIEMVRAVEGADFGAVFKEYERGVYTVSLRSSNLSVASLAVHLGGGGHIPAAGYTARGTEIEALDTLIEATVTLGESLRSSAHVDVLEHHHHHH”, the “soluble on expression in E. coli” value was “soluble”.
With “MTDQIKTDNARSKAEQLPLAFSHQSASGREDLLVSASLAAAVSLVDEWPNWPSPVVVLAGPPGSGKSHLANIWKNISDARDIHPEAGADAARAAETGPVLFEDADRRGFDDTELFHVINSVRQHGTTLLMTSRQWPAAWPVTLPDLRSRLKAVTVVETGEPDEGLLAQVLVKLFADRQLYMDDKLIGYIVNRMERSLDTAQTIVEQIDHLALSRATRITRPLVAEVLNAMDKAAAGDGSDID” the “soluble on expression in E. coli” value was “not soluble”.
In the case of “MTDQPDLFGLAPDAPRPIIPANLPEDWQEALLPEFSAPYFHELTDFLRQERKEYTIYPPAPDVFNALRYTPLGEVKVLILGQDPYHGPNQAHGLSFSVRPGVRVPPSLRNIYKELTEDIPGFVAPKHGYLRSWAEQGVLLLNAVLTVRAGQANSHQGKGWEHFTDAVIKAVNAKEERVVFILWGSYARKKKKLITGKNHVVIESGHPSPLSEQYFFGTRPFSKTNEALEKAGRGPVEWQLPATVTEE”, the “soluble on expression in E. coli” value is reported as “soluble”.
With “MTDRYTIHSQLEHLQSKYIGTGHADTTKWEWLVNQHRDSYCSYMGHFDLLNYFAIAENESKARVRFNLMEKMLQPCGPPADKPEEN” the “soluble on expression in E. coli” value was “soluble”.
With “MTDSKYDYSDITPVDINTEEPQICQILYDEDYKQIMGLLLALMKAEEYSERALHITELGINELASHYTIWIYRFNILKNLPNRNLYDELDWCEEIALDNEKNYQIWNYRQLIIGQIMELNNNDFDPYREFDILEAMLSSDPKNHHVWSYRKWLVDTFDLHNDAKELSFVDKVIDTDLKNNSAWSHRFFLLFSKKHLATDNTIDEELNYVKDKIVKCPQNPSTWNYLLGIHERFDRSITQLEEFSLQFVDLEKDQVTSSFALETLAKIYTQQKKYNESRTVYDLLKSKYNPIRSNFWDYQISKLTSV” the “soluble on expression in E. coli” value was “soluble”.
For “MTEAQLTLPTTKLSPTQKTQFIKLEKKLRRNVGQAIAQYNMIEDGDKVMVCLSGGKDSYAMLSILMLLKESAPIHFDIIAVNLDQKQPGFPEHILPEYLDKLGIEYHIVEEDTYGIVKEKVPEGKTTCSLCSRLRRAVLYKAAKKIGATKIALGHHRDDMIETLMLNMFYGGKMKAMPAKLVSDNGEHVVIRPLAFCKESELIQYSELKHFPIIPCNL”, the “soluble on expression in E. coli” value was “not soluble”.
